The text below walks through data of paper PMC9882245.

This assay addresses NLuc-CLR:RAMP3 (N-terminally nanoluciferase-tagged CLR co-expressed with RAMP3; AM2 receptor) (human) (UniProt Q16602). Nature of the assay: FRET or BRET.

Sequence of NLuc-CLR:RAMP3 (N-terminally nanoluciferase-tagged CLR co-expressed with RAMP3; AM2 receptor) (human) (Q16602 23-461, chain 1 of 2): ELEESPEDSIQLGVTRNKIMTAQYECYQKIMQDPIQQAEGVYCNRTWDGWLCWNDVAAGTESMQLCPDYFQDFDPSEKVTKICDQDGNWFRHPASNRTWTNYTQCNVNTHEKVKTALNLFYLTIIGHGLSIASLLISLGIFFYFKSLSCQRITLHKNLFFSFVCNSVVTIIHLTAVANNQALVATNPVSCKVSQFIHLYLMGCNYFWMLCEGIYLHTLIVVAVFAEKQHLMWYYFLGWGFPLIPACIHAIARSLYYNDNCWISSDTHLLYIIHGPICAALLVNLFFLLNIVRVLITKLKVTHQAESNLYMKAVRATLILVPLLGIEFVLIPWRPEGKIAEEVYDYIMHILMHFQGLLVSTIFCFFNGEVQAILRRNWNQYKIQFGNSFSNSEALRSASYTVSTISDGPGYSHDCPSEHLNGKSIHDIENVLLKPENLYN
Sequence of NLuc-CLR:RAMP3 (N-terminally nanoluciferase-tagged CLR co-expressed with RAMP3; AM2 receptor) (human) (O60896 24-148, chain 2 of 2, further chain): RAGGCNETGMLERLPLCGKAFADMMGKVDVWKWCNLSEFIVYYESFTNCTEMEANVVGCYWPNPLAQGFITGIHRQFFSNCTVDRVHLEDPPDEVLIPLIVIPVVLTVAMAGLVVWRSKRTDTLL

As usually defined, the Kd is the equilibrium constant for the complex coming apart. The low end stands for higher affinity, the high end for lower affinity. Substance “AM2/IMD-TAMRA (adrenomedullin 2/intermedin labeled with TAMRA on a Lys substituted at D35) (peptide)” had a Kd of 7 nM; a dissociation half-life, fast component of 7 min; a dissociation half-life, slow component of 76 min; a half-life (t1/2) from the off-rate of the association kinetics analysis of 21 min.

As to “AM-TAMRA (adrenomedullin labeled with TAMRA on a Lys substituted at N40) (peptide)”, the Kd was determined as 26 nM; the dissociation half-life, fast component is 0.75 min; the dissociation half-life, slow component is 6.9 min; the half-life (t1/2) from the off-rate of the association kinetics analysis stood at 2.5 min.
